Data as given in patent publication US20260070984A1 (Boehringer Ingelheim, published 2026).
Positions count from the first letter of the chain named.

B1: 414A12 (mouse IgG1 backbone) (antibody, V domains shown)
VH: QVQLQQPGAELVKPGASVKLSCKASGHTFTSNWIHWVKQRPGQGLEWIGEIDPSDSYTYYNQKFKGKATLTVDKSSSTAYMQLSSLTSEDSAVYSCACPGRNSNFAYWGQGTTLTVSS
VL: DILMTQSPSSMSVSLGDTVSITCHASQGINNNIGWLQQKPGKSFKGLIYHKSNLEDGVPSRFSGSGSGADYSLTISSLESEDFADYYCVQYAQFPYTFGGGTKLEIK
B2: 502H1 (mouse IgG1 backbone) (antibody, V domains shown)
VH: QVTLKESGPGILQPSQTLSLTCSFSGFSLSTSGMGVTWIRKPSGQGLEWLAHIFWDGDKRYNPSLKSRLTISKDSSSNQVFLMITGVGTADAATYYCARYYYFDYGYAIDYWGQGTSVTVSS
VL: DIVMTQAAFYNPVTLGTSASISCRSSKSLLHRNGITYLYWYLQKPGQSPQLLIYQMSNLASGVPDRFSSSGSGADFTLRISRVEAEDVGVYYCAQNLELPLTFGAGTKLELK
B3: 307A3 (mouse IgG1 backbone) (antibody, V domains shown)
VH: EVQLQQSGPELVKPGASVKISCKASGYTFTDYYVNWVKQSHGKSLEWFGDIHPNNGGITYNQKFKGKASLTVDKSSSTAYMELRSLTSEDSAVYYCARRRYDYDGFAYWGQGTLVTVSA
VL: B2 VL with D1E, Y10S, Q55E, S69G, A74T, A94G, L99F
B4: 701E9 (mouse IgG1 backbone) (antibody, V domains shown)
VH: QVQLQQSGPELVKPGASVKLSCKASGYTFIDYTIHWVKQSPGQGLEWIGWIFPGSTNDTKYNDKFKGKATMTADKSSSTAYMQLSSLTSEDSAVYFCARYRTDFDYWGQGTTLTVSS
VL: DIQMTQSPSSLSASLGERVSLTCRASQEISGYLSWLQQKPDGTIKRLIYAASTLDSGVPKRFSGSRSGSDYSLTISSLESEDFADYYCLQYASYPLTFGAGTKLELK
B5: 811G3 (mouse IgG1 backbone) (antibody, V domains shown)
VH: QIQLQQSGPEVVKPGASVKISCKASGYTFTDYYINWVKQRPGQGLEWIGWIYPGGGHTKYNEKFKGEATLTVDTSSRTAYMQLSSLTSEDSAVYFCARYSNYYFDFWGHGTTLTVSS
VL: B4 VL with L15P, A50V, S93N, L96Y, A100G, L106I
B6: 803E6 (mouse IgG1 backbone) (antibody, V domains shown)
VH: EVKLVESEGGLVQPGSSMKLSCTASGFTFSDYYMAWVRQVPEKGLEWVANINYDGFNTYYLDSLKSRFIISRDNAKNILYLQMSSLKSEDTATYYCARGGYWSLYFDYWGQGTTLTVSS
VL: DIVMTQSPSSLTVTAGEKVTMSCKSSQSLLHSGNQKNYMTWYQQKPGQPPKLLIYWASTRESGVPDRFTGSGSGTDFTLTISSVQAEDLAVYYCQNDYSYPLTFGAGTKLELK
B7: 709A6 (mouse IgG1 backbone) (antibody, V domains shown)
VH: QVTLKESGPGILQPSQTLSLTCSFSGFSLSTSGMGVSWIRQPSGKGLEWLTHIYWDDDKRYNPSLKSRLTISKDTSRNQVFLEITSVDTADTATYFCARSSQGLYSSYDYWGQGTTLTVSS
VL: DIVLTQSPASLAVSLGQRATISCRASESVDIYGISFLHWYQQKPGQPPKHLIYRASNLDSGIPARFSGSGSRTDFTLTINPVETDDVATYYCQQSNKDPLTFGAGTKLELK
B8: 701C1 (mouse IgG1 backbone) (antibody, V domains shown)
VH: EVQLQQSGPELVKPGASVKMSCKASGYTFTSYVIHWVKQKPGQGLEWIGYIDPSNDDTKYNEKFKGKATLTSDKSSSTAYMELSSLTSEDSAVYYCAREAYYGGLYGMDYWGQGTSVTVSS
VL: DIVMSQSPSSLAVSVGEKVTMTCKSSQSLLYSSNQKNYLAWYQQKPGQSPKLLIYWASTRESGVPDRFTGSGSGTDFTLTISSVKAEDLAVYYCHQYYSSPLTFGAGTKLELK
B9: Chimeric 414A12 (antibody, V domains shown)
VH: B1 VH
VL: B1 VL
notes: Mouse variable domains in human IgG4Pro (Ser228Pro) backbone; also called 414A12 in human IgG4Pro backbone
B10: Chimeric 708E4 (antibody, V domains shown)
VH: QIQLQQSGPELVKPGASVKISCKASGYTFTDYYLNWVKQRPGHGLEWIGWIYPGSSDTKHNENFKGKATLTVDTYSSTAYMQLGSLTSEDSAVYFCTRYSNFFFDYWGQGTTLTVSS
VL: DIVMTQSQKFLSTSVGDRVRVTCKASQNVVTYVAWYQQKPGQSPKSLIYSASYRYSGVPDRFTGSGSGTYFTLTINNVQFEDLAEYFCQQYHSYPYTFGGGTKLEIK
notes: Mouse variable domains in human IgG4Pro (Ser228Pro) backbone; also called 708E4 in human IgG4Pro backbone
B11: Chimeric 313C12 (antibody, V domains shown)
VH: EVQLVESGGGLVKPGGSLKLSCAASGFTFSDYGMHWVRQTPEKGLEWIAYINSDSNTIYYADTVKGRFTISRDNARKTLYLQMTSLRSEDTAMYYCSPLVAPDYWGQGTTLTVSS
VL: DIVMTQSQKFMSTTVGDRVSITCKASQNVGTAVAWYQQKPGQSPKLLIYSVSNRYTGVPDRFTGSGSGTDFTLTISNMQSEDLADYFCQQYSSYPFTFGAGTKLELK
notes: Mouse variable domains in human IgG4Pro (Ser228Pro) backbone; also called 313C12 in human IgG4Pro backbone
B12: Chimeric 502H1 (antibody, V domains shown)
VH: B2 VH
VL: B2 VL
notes: Mouse variable domains in human IgG4Pro (Ser228Pro) backbone; also called 502H1 in human IgG4Pro backbone
B13: Chimeric 306E6 (antibody, V domains shown)
VH: B3 VH with A16S, N55S, G57D, I58T, G66D, S69T
VL: B2 VL with D1E, Y10S, Q55E, A74T, A94G, L99F
notes: Mouse variable domains in human IgG4Pro (Ser228Pro) backbone; also called 306E6 in human IgG4Pro backbone
B14: Chimeric 307A3 (antibody, V domains shown)
VH: B3 VH
VL: B2 VL with D1E, Y10S, Q55E, S69G, A74T, A94G, L99F
notes: Mouse variable domains in human IgG4Pro (Ser228Pro) backbone; also called 307A3 in human IgG4Pro backbone
B15: Chimeric 701E9 (antibody, V domains shown)
VH: B4 VH
VL: B4 VL
notes: Mouse variable domains in human IgG4Pro (Ser228Pro) backbone; also called 701E9 in human IgG4Pro backbone
B16: Chimeric 811G3 (antibody, V domains shown)
VH: B5 VH
VL: B4 VL with L15P, A50V, S93N, L96Y, A100G, L106I
notes: Mouse variable domains in human IgG4Pro (Ser228Pro) backbone; also called 811G3 in human IgG4Pro backbone
B17: Chimeric 803E6 (antibody, V domains shown)
VH: B6 VH
VL: B6 VL
notes: Mouse variable domains in human IgG4Pro (Ser228Pro) backbone; also called 803E6 in human IgG4Pro backbone
B18: Chimeric 709A6 (antibody, V domains shown)
VH: B7 VH
VL: B7 VL
notes: Mouse variable domains in human IgG4Pro (Ser228Pro) backbone; also called 709A6 in human IgG4Pro backbone
B19: Chimeric 701C1 (antibody, V domains shown)
VH: B8 VH
VL: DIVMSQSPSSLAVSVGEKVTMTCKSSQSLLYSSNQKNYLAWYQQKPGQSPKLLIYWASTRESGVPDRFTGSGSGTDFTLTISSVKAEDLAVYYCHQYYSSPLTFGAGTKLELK
notes: Mouse variable domains in human IgG4Pro (Ser228Pro) backbone; also called 701C1 in human IgG4Pro backbone
B20: Chimeric 814E10 (antibody, V domains shown)
VH: QIQLQQSGPELVKPGASVKISCKASGYTFTSYYIQWVKQRPGQGLEWIGWIYPGDGTTNYNENFKGKTTLTADKSSSTVYMLLSSLTSEDSAVYFCARYGLVPFDYWGQGTTLTVSS
VL: DIQMTQTTSSLSASLGDRVTISCSASQDIINYLNWYQQKPDGTVKLLIYSTSSLHSGVSLRFSGSGSGTDYSLTISNLEPEDVATYYCHQYSQLPYTFGGGTKLEIK
notes: Mouse variable domains in human IgG4Pro (Ser228Pro) backbone; also called 814E10 in human IgG4Pro backbone

What follows are binders tested against human PD-1 expressed on cells (human, UniProt Q15116 25-288) (assay: cell-based or functional assay).
human PD-1 expressed on cells, sequence (Q15116 25-288): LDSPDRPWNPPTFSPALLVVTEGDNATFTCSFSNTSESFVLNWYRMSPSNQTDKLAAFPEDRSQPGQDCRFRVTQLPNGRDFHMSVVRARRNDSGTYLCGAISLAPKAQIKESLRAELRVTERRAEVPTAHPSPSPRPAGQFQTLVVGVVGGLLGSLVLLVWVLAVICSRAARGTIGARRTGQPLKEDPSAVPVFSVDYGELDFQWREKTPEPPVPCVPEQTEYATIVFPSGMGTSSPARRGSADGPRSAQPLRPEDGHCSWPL

Row | Emax Values (%), inhibition of NFAT activity | IC50 Values (nM), inhibition of NFAT activity | Binder
1 | 45% | 0.39 nM | B1
2 | 48.9% | 0.34 nM | B2
3 | 42.6% | 1.03 nM | B3
4 | 46% | 0.22 nM | B4
5 | 44.5% | 0.14 nM | B5
6 | 48.3% | 0.38 nM | B6
7 | 29.8% | 0.04 nM | B7
8 | 53.2% | 1.69 nM | B8

The binders below were run against T1, recombinant human PD-1 (human, UniProt Q15116 25-167, limits assumed) (assay: SPR, ProteOn XPR36).
T1 construct: Soluble recombinant protein used in SPR; also called PDCD1; purified recombinant human PD-1
Procedure: Kinetics and binding affinities were measured using the ProteOn™ XPR36 (Biorad, Hercules, CA) surface plasmon resonance optical biosensor using material generated from transient transfection following single column purification.

T1 sequence (Q15116 25-167 limits assumed): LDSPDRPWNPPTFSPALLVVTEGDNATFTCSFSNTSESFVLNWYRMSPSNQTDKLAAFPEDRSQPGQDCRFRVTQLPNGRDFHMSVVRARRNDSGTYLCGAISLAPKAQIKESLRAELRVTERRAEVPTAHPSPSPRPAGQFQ

Row | Kd | koff | kon | Binder
9 | 1.5 nM | 0.000269 s⁻¹ | 180000 M⁻¹ s⁻¹ | B9
10 | 8.08 nM | 0.000348 s⁻¹ | 43100 M⁻¹ s⁻¹ | B10
11 | 0.859 nM | 5.77e-05 s⁻¹ | 67100 M⁻¹ s⁻¹ | B11
12 | 6.39 nM | 0.000349 s⁻¹ | 54700 M⁻¹ s⁻¹ | B12
13 | 56.4 nM | 0.00765 s⁻¹ | 136000 M⁻¹ s⁻¹ | B13
14 | 63.5 nM | 0.0074 s⁻¹ | 116000 M⁻¹ s⁻¹ | B14
15 | 1.62 nM | 0.000143 s⁻¹ | 88300 M⁻¹ s⁻¹ | B15
16 | 9.14 nM | 0.000801 s⁻¹ | 87700 M⁻¹ s⁻¹ | B16
17 | 5.02 nM | 0.00053 s⁻¹ | 106000 M⁻¹ s⁻¹ | B17
18 | 5.52 nM | 0.000483 s⁻¹ | 87400 M⁻¹ s⁻¹ | B18
19 | 13 nM | 0.000305 s⁻¹ | 23400 M⁻¹ s⁻¹ | B19
20 | 1.85 nM | 0.000149 s⁻¹ | 80700 M⁻¹ s⁻¹ | B20
